# Assay results: publication PMC4353693
# Legend:
# [1] = molecular target: C-terminally CFP-tagged P1aABD (P1aABD-CFP); assay: FRET or BRET
# [2] = molecular target: actin binding domain of plectin isoform 1a (P1aABD); assay: ITC
# P1aABDΔ22 = assay: ITC
Substance,FRET efficiency [1] [%],Kd [2] [µM],KD calculated with the competitive binding model [2] [µM],apparent KD in the presence of β4Fn12 (displacement) [2] [µM],Kd (P1aABDΔ22) [nM]
C-terminally yellow fluorescence protein (YFP)-tagged CaM (CaM-YFP) (from UniProt P0DP23 1-149) (natural protein),19,–,–,–,–
N-ter lobe of calmodulin (CaMNL) (from UniProt P0DP23 10-74) (domain or fragment),–,10.5,–,–,–
"calmodulin (CaM), full length, with Ca2+ (from UniProt P0DP23 1-149) (natural protein)",–,4.2,2.3,7.7,2600
